This passage reports Kd(1), first binding event (macroscopic), cooperativity factor α2 (second binding event) and cooperativity factor α3 (third binding event) results from publication PMC3289903.

This assay deals with recombinant Tp0956 (non-lipidated, residues 2-302) (Treponema pallidum). Briefly: AUC.
Sequence of recombinant Tp0956 (non-lipidated, residues 2-302) (Treponema pallidum) (O83922 23-323 limits assumed): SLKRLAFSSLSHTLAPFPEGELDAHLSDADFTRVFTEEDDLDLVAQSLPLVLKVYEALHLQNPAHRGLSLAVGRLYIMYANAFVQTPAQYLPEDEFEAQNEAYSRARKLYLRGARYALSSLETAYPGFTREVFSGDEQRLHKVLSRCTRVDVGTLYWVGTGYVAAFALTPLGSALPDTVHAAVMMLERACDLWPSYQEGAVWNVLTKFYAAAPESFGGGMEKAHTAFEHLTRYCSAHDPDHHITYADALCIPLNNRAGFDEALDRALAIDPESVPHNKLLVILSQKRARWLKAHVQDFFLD

Take “recombinant Tp0957 (non-lipidated, residues 7-328) (natural protein)”: the Kd(1), first binding event (macroscopic) is 60 nM; the cooperativity factor α2 (second binding event) came out at 1.5; the cooperativity factor α3 (third binding event) stood at 0.34.
